Measurements reported in patent CN109879965A.

Target: CD3E on human peripheral blood T lymphocytes (human) (UniProt P07766)
Assay: cell-based or functional assay

CD3E on human peripheral blood T lymphocytes (human), sequence (P07766 23-207): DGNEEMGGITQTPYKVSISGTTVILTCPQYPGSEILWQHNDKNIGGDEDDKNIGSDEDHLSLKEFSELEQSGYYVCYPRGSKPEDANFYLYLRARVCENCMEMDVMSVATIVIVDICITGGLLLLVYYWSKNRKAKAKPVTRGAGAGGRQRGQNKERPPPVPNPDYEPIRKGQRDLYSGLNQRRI

## OKT3 (antibody)
  IL-2 in the supernatant of PBMC after 48 h on plate-coated antibody (1 μg/mL), IL-2 ELISA: 400 pg/mL
